Test results as given in publication PMC6508567, “Noncanonical interactions between serpin and β‐amylase in barley grain improve β‐amylase activity in vitro” (Plant Direct, 2018).

Target: the molecule itself
Experiment: cross-linking; purified proteins in PBS oxidised with 5, 10 and 20 μM CuCl2 for 10 min (disulfide bonds), non-reducing 10% SDS-PAGE, immunoblot; β-amylase alone or mixed with serpin Z4 at 1:2 and 1:5

B1: serpin Z4 (natural protein, barley (Hordeum vulgare) cv. Harrington, UniProt P06293 1-399, looked up)
chain: MATTLATDVRLSIAHQTRFALRLRSAISSNPERAAGNVAFSPLSLHVALSLITAGAAATRDQLVAILGDGGAGDAKELNALAEQVVQFVLANESSTGGPRIAFANGIFVDASLSLKPSFEELAVCQYKAKTQSVDFQHKTLEAVGQVNSWVEQVTTGLIKQILPPGSVDNTTKLILGNALYFKGAWDQKFDESNTKCDSFHLLDGSSIQTQFMSSTKKQYISSSDNLKVLKLPYAKGHDKRQFSMYILLPGAQDGLWSLAKRLSTEPEFIENHIPKQTVEVGRFQLPKFKISYQFEASSLLRALGLQLPFSEEADLSEMVDSSQGLEISHVFHKSFVEVNEEGTEAGAATVAMGVAMSMPLKVDLVDFVANHPFLFLIREDIAGVVVFVGHVTNPLISA
notes: serpin Z4 of barley (Hordeum vulgare) cv; Harrington, cloned from cDNA into pET28-(a); In one direction of the MST experiment the protein carried an NHS-ester fluorescent dye; in one direction of the SPR experiment it was amine-coupled to a CM5 chip; source: E. coli SHuffle cells, purified (Ni-NTA, gel filtration on Superdex 200 Increase)
B1: binds.
